Reference: the nanobody polyreactivity screen of Harvey et al. (2022)

test: yeast display, Sf9 membrane polyspecificity reagent, FACS + sequencing; frameworks hold sequencing errors
Procedure, shortened: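 Genes from sorted yeast were amplified by colony PCR, read by MiSeq 2 × 250 sequencing and filtered on CDR length. These cells carried a synthetic nanobody library in Saccharomyces cerevisiae BJ5465 and were sorted by FACS into low and high (top ~1%) gates on anti-HA and streptavidin fluorescence. Polyreactivity is labelled according to the gate of origin.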

Row | Sequence | polyreactivity (PSR sort gate)
1 | QVQLVESGGGLVQAGGILRLSCAASGIIYQRNAMGCYRQAPGKERQLVASITAGGDTTYYADSVKGRFTISRDNAKNTVYLQMNSLKPEDTAVYYCAVDSWLDDDDSYPDSILVDYWGQGTQVTVSS | low polyreactivity
2 | QVQLVESGGGLVQAGGILRLSCAASGLIFANNAMGWYRQAPGKERELVAAITGGGDGTYYADYVKGRFTISRDNAKNNVYFQMNSLKPEDTAVYYCAADYKYLGSEYCYWGQGTQVTVSS | low polyreactivity
3 | QVQLVESGGGLVQAGGILRLSCAASGLIFPPNAMGWYRQAPGKERELVASITRSGGSTYYADSVKGRFTISRDNAKNTVYLQMNSLKPEDTAVYYCAAYLDTSRYGVLYDYWGQGTQVTVSS | low polyreactivity
4 | QVQLVESGGGLVQAGGILRLSCAASGNIFESYGMGWYRQAPGKERELVAANSYSGGTTYYADSVKGRFTFSRDNEKNTVYLQMNSLKPEDTAVYYCAARLHHFFTYDYWGQGTQVTVSS | low polyreactivity
5 | QVQLVESGGGLVQAGGILRLSCAASGQIFTYYVMGWYRQAPGKERELVAAIDWDSGSTSYADSLKGRFTISRDNAKNTVYLQMNSLKPEDTAVYYCAADEVLSGYYTLDYWGQGTQVTVSS | low polyreactivity
6 | QVQLVESGGGLVQAGGILRLSCAASGRIFHWYAMGWYRQAPGKERELVDAITDGYSTYYADSVNGRYKISRDNAKNTVYLQMNSLKPEETAVYYCAADVGYSPYVFGVTRYYKYDYWGQGTQVTVSS | low polyreactivity
7 | QVQLVESGGGLVQAGGILRLSCAASGRIFKDNAMGWYRLAPGKERELVATIDSGGDTNYADSVKGRFTISRDNAKNTVYLQMNSLKPEDTAVYYSNTEGFLSAVYAFGYWGQGTQVTVSS | low polyreactivity
8 | QVQLVESGGGLVQAGGILRLSCAASGRIFPKYAMGWYRQAPGKERELVAAIRWSGGNTYYADSVKGRFTISRDNAKNTVYLQMNSLKPEDTAVYYCAATPYVSKYYYFGHDYWGQGTQVTVSS | high polyreactivity
9 | QVQLVESGGGLVQAGGILRLSCAASGRIFTRYSLGWYRPAPGKESELVAAISSGGSTYYADSVKGRFTISRDNAKNTVYLQMNSLKPEDTAVYYSAAKTRPQRTFSTRQQMNYWGQGTQVTVSS | high polyreactivity
10 | QVQLVESGGGLVQAGGILRLSCAASGRIFYYNTMGWYRQAPGKERELVAAITRGGGRTYYADSVKGRFTISRDNAKNTVYLQMNSLKPEDTAVYYCNTRSTLGYYWGQGTQVTVSS | high polyreactivity
11 | QVQLVESGGGLVQAGGILRLSCAASGRTFVLNAMGRYRQAPGKERELVAAITSGGSTYYADSVKGRFTISRDNAKNTVYLQMNMLKPEDTAVYYCAVTYKGDSSWPGDYWGQCTQVTVSS | low polyreactivity
12 | QVQLVESGGGLVQAGGILRLSCAASGRTFYYYAMGWYRQAPGKERELVAAISWGGGRTYYADSVKGRFTISRDNAKNTVYLHMNSLKPEDTAVYYCDTTAYNGYDYWGQGTQVTVSS | high polyreactivity
13 | QVQLVESGGGLVQAGGILRLSCAASGSIFLGNAMGWYRQAPGKERELVAVINSGGDTNYADSVKGRFTISRDNAKNTVYLQMNSLKPEDTAVYYCARRKGKWDSYGGWGQGTQETVSS | low polyreactivity
14 | QVQLVESGGGLVQAGGILRLSCAASGSIFPYYAMGWYRQAPGKERELVATITSRGGSTYYADSVKGRFTISRDNAKNTVYLQMNSLKPEDTAVYYCNTLQPYLYDYWGQGTQVTVSS | high polyreactivity
15 | QVQLVESGGGLVQAGGILRLSCAASGSIFYRNAMGWYRQAPGKERELVAAISARGGRTNYADSVKGRFTISRDNAKYTVYLQMNSLKPEDTAVYYCNTADSWYHRSQAYDYWGQGTQVTVSS | high polyreactivity
16 | QVQLVESGGGLVQAGGILRLSCAASGSTFGRYAIGWYRPAPGTERELVAAISRRGGSTYYADSVKWRFTISRDNAKNNVYLQMYSLKPVDTAVYYCAADDVRTSGCHFDYWGDGTQVTVSS | high polyreactivity
17 | QVQLVESGGGLVQAGGILRLSCAASGSTFSSNAMGWYRQAPGKERELVAAISKRGGRTYYADSVKGRFTISRDNAKNTVYLQMNSLKPEDTAVYYCAAEYWVPAWKFGYEYWGQGTQVTVSS | high polyreactivity
